molecular target: GST-MuRF1 (MuRF1 full length, TRIM63) (Rattus norvegicus); test: other fluorescence titration; change in the initial fluorescence of dye-labelled GST-MuRF (10 nM, constant) with a 16-sample serial dilution of the E2; MonolithX (NanoTemper), premium capillaries, 100% MST power, 25 °C; 50 mM HEPES pH 7.4, 150 mM NaCl, 0.005% Tween20, 0.1% dextran
Sequence (Q91Z63 whole entry): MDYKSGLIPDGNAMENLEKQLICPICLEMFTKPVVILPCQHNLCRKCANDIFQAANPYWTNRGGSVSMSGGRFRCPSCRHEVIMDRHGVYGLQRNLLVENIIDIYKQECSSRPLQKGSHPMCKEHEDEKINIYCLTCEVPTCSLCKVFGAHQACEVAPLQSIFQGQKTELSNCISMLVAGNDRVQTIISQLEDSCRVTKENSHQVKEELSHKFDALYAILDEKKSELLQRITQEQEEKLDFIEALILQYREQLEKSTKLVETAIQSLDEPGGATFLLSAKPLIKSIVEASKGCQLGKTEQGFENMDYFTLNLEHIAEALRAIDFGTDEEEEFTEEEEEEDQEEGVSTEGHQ

| Kd [µM] | Substance |
| --- | --- |
| 26 | UBE2J2 cytosolic part K26A (from UniProt Q6P073 1-259) (domain or fragment) |
| 8.9 | UBE2J2 cytosolic part N6A,R8A (from UniProt Q6P073 1-259) (domain or fragment) |
| 10.3 | UBE2J2 cytosolic part P10A,T11A (from UniProt Q6P073 1-259) (domain or fragment) |
